Biological target: T1, FLAG epitope-tagged Mtt1p (yeast (S. cerevisiae), UniProt P32644 1-1121, limits assumed)
T1 construct: Used as a yeast cytoplasmic extract, not as purified protein; also called Flag-Mtt1p; Modulator of Translation Termination
T1 sequence (looked up): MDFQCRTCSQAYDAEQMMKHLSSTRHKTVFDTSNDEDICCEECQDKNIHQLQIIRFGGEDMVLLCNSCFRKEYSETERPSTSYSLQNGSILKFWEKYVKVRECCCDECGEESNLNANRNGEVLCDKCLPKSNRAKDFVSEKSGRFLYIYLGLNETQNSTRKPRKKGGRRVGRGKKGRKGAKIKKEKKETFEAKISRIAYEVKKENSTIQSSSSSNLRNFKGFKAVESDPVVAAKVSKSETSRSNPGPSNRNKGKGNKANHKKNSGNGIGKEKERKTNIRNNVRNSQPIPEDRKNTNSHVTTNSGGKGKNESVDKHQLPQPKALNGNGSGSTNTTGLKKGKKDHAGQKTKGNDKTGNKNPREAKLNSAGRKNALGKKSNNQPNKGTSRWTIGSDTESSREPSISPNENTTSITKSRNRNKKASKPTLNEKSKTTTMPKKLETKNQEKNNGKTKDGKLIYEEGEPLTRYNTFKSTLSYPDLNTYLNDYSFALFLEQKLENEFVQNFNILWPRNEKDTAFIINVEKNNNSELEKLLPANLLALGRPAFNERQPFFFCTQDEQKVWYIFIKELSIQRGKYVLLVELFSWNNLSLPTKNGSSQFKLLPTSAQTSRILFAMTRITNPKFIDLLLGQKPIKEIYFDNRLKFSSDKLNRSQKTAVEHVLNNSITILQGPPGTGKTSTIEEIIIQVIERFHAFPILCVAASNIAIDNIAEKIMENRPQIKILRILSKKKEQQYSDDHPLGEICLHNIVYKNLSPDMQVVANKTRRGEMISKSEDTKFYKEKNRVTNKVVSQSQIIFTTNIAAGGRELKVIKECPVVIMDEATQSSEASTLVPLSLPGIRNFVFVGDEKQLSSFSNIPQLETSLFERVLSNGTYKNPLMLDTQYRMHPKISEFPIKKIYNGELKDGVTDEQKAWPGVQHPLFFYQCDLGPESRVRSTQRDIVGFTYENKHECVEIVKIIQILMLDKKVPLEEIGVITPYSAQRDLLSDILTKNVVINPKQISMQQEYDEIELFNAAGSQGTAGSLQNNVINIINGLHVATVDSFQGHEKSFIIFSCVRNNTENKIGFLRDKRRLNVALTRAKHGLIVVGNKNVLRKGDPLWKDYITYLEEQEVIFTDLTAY
Assay: GST pull-down from yeast cytoplasmic extract, anti-FLAG immunoblot
Method: Total RNA was prepared and subjected to RNA blotting analysis, using a probe for CYH2 mRNA. Figure 4: FIG. 4 Mtt1 interacts withe eRF3. Cytoplasmic extracts from a yeast strain BJ3505 transformed with either pG-1 (vector) or pG-1 FLAGMTT1 (Flag-Mtt1p) were prepared in IBTB and incubated with 30 μl GST, GST-eRF1. GST-eRF3, GST-eRF3NM or GST-eRF3C sepharose-protein complexes. The sepharose-protein complexes were washed 2 times in IBTB (see materials and methods), resuspended in SDS-PAGE loading buffer, separated on an 8% SDS-PAGE gel and immunoblotted using anti-FLAG antibody.
Since deleting the MTT1 gene also promotes nonsense suppression of the tyr7-1 and leu2-2 alleles, Mtt1p also interacts with the peptidyl release factors. To test this, eRF1 and eRF3 were individually expressed in *E. coli* as glutathione-S-transferase (GST) fusion proteins and purified using glutathione sepharose beads. The purified GST-RF (release factor) fusion proteins associated with the glutathione sepharose beads were added to a yeast cytoplasmic extract containing a FLAG epitope-tagged Mtt1p (see Experimental Procedures). Following incubation, the GST-RFs and associated proteins were purified by affinity chromatography and subjected to SDS-PAGE. Immunoblotting was performed and the presence of the Flag-Mtt1p was assayed using an antibody against the FLAG epitope.

B1: GST-eRF1 (other, yeast (S. cerevisiae), UniProt P12385 1-437, looked up)
chain: MDNEVEKNIEIWKVKKLVQSLEKARGNGTSMISLVIPPKGQIPLYQKMLTDEYGTASNIKSRVNRLSVLSAITSTQQKLKLYNTLPKNGLVLYCGDIITEDGKEKKVTFDIEPYKPINTSLYLCDNKFHTEVLSELLQADDKFGFIVMDGQGTLFGSVSGNTRTVLHKFTVDLPKKHGRGGQSALRFARLREEKRHNYVRKVAEVAVQNFITNDKVNVKGLILAGSADFKTDLAKSELFDPRLACKVISIVDVSYGGENGFNQAIELSAEALANVKYVQEKKLLEAYFDEISQDTGKFCYGIDDTLKALDLGAVEKLIVFENLETIRYTFKDAEDNEVIKFAEPEAKDKSFAIDKATGQEMDVVSEEPLIEWLAANYKNFGATLEFITDKSSEGAQFVTGFGGIGAMLRYKVNFEQLVDESEDEYYDEDEGSDYDFI
notes: also called GST-RF1; GST-RF; not shown: glutathione-S-transferase (GST) from vector pGEX2T
B1: no binding.
